US20090074779A1

Target: TrkC, Q16288
Assay: SPR (BIAlite), receptor amine-coupled on CM4 chip, ligand injected, 25 C
Settings: remark: other sources report otherwise

TrkC, Q16288, sequence (Q16288 32-429 limits assumed): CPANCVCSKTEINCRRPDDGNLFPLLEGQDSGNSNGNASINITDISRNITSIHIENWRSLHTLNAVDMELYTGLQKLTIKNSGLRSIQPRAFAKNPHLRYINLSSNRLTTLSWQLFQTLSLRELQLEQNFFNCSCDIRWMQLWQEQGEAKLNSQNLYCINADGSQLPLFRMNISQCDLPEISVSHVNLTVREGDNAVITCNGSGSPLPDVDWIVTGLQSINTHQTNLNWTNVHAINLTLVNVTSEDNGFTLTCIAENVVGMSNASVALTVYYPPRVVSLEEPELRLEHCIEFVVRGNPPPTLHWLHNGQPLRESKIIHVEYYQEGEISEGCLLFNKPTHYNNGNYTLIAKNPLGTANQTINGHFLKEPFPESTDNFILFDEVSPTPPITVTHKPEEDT

Kd: 0.014 µM
B1: BDNF, P23560 129-247 (ligand, UniProt P23560 129-247, looked up)
chain: HSDPARRGELSVCDSISEWVTAADKKTAVDMSGGTVTVLEKVPVSKGQLKQYFYETKCNPMGYTKEGCRGIDKRHWNSQCRTTQSYVRALTMDSKKRIGWRFIRIDTSCVCTLTIKRGR
